Measured values taken from publication PMC9482650, “Quantitative fragmentomics allow affinity mapping of interactomes” (Nature Communications, 2022).

Columns and labels:
Assay in all cases: holdup assay
Parameters in all cases: key: below the threshold = too weak to quantify, mostly under pKd 3.1 to 4
DLG5_1, Q8TDM6 = biological target: DLG5_1, Q8TDM6
IL16_3, Q14005 = biological target: IL16_3, Q14005
TIAM2, Q8IVF5 = biological target: T1, TIAM2, Q8IVF5
T1 sequence (Q8IVF5 885-986, limits assumed, looked up): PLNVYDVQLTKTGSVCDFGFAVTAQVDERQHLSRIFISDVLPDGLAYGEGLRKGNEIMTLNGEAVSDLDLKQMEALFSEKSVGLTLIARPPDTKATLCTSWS

HTRA3, P83110 = biological target: T2, HTRA3, P83110
T2 sequence (P83110 354-453, limits assumed, looked up): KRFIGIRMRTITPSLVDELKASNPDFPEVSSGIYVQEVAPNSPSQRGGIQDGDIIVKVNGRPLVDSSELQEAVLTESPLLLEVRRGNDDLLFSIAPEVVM

TJP1_3, Q07157 = biological target: TJP1_3, Q07157
GRASP, Q7Z6J2 = biological target: GRASP, Q7Z6J2
PDZRN3_1, Q9UPQ7 = biological target: T3, PDZRN3_1, Q9UPQ7
T3 sequence (Q9UPQ7 244-349, limits assumed, looked up): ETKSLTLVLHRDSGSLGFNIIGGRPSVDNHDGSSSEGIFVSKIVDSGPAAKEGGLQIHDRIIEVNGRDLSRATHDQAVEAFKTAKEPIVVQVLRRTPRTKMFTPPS

GRIP2_6, Q9C0E4 = biological target: GRIP2_6, Q9C0E4
Inadl_9, Q8NI35 = biological target: Inadl_9, Q8NI35
GRID2IP_2, A4D2P6 = biological target: GRID2IP_2, A4D2P6
PICK1, Q9NRD5 = biological target: PICK1, Q9NRD5
MPP2, Q14168 = biological target: T4, MPP2, Q14168
T4 sequence (Q14168 180-250, limits assumed, looked up): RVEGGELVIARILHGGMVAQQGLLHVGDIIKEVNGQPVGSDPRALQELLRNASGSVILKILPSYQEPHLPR

GORASP2, Q9H8Y8 = biological target: GORASP2, Q9H8Y8
IL16_4, Q14005 = biological target: IL16_4, Q14005
FRMPD3, Q5JV73 = biological target: FRMPD3, Q5JV73
RADIL, Q96JH8 = biological target: T5, RADIL, Q96JH8
T5 sequence (Q96JH8 971-1071, limits assumed, looked up): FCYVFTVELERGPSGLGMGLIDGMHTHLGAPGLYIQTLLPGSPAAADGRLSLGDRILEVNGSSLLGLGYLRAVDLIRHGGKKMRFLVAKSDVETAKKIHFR

MAGI2_2, Q86UL8 = biological target: MAGI2_2, Q86UL8
DLG3_2, Q92796 = biological target: T6, DLG3_2, Q92796
T6 sequence (Q92796 221-321, limits assumed, looked up): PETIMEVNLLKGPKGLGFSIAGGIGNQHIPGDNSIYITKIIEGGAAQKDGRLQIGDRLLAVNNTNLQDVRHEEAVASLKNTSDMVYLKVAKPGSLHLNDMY

LNX1_2, Q8TBB1 = biological target: LNX1_2, Q8TBB1
APBA3_1, O96018 = biological target: T7, APBA3_1, O96018
T7 sequence (O96018 389-490, limits assumed, looked up): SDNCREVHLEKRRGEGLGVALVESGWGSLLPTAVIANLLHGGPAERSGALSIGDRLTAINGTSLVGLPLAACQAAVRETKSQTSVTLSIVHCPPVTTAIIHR

NOS1, P29475 = biological target: NOS1, P29475
GRIP2_4, Q9C0E4 = biological target: GRIP2_4, Q9C0E4
MPDZ_12, O75970 = biological target: T8, MPDZ_12, O75970
T8 sequence (O75970 1857-1958, limits assumed, looked up): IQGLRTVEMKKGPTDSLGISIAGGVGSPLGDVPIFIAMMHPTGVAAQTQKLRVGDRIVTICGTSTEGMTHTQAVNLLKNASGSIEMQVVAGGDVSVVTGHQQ

DFNB31_1, Q9P202 = biological target: T9, DFNB31_1, Q9P202
T9 sequence (Q9P202 135-233, limits assumed, looked up): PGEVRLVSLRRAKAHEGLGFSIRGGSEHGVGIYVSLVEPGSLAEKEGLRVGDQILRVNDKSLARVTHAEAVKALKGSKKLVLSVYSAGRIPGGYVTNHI

DFNB31_3, Q9P202 = biological target: T10, DFNB31_3, Q9P202
T10 sequence (Q9P202 811-907, limits assumed, looked up): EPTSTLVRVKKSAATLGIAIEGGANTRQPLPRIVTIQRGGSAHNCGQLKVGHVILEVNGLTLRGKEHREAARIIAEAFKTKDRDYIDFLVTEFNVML

GRIP1_4, Q9Y3R0 = biological target: T11, GRIP1_4, Q9Y3R0
T11 sequence (Q9Y3R0 467-571, limits assumed, looked up): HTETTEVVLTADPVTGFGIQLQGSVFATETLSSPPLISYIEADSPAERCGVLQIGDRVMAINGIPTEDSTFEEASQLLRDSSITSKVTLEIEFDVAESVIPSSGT

[1] = plain residues with an end cap or a label only (N-terminal biotin on a linker: ttds)
[2] = plain residues with an end cap or a label only (N-terminal biotin on a linker: ahx)

Inadl_9, Q8NI35, sequence (Q8NI35 1530-1615): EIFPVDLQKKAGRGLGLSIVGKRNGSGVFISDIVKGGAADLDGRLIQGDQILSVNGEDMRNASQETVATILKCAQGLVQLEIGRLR
IL16_3, Q14005, sequence (Q14005 1107-1207): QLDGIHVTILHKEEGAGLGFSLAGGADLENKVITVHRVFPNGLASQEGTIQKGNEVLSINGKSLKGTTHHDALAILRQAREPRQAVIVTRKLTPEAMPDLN
LNX1_2, Q8TBB1, sequence (Q8TBB1 371-470): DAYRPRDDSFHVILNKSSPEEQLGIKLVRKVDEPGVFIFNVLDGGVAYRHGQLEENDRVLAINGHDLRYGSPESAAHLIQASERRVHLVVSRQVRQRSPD
PICK1, Q9NRD5, sequence (Q9NRD5 17-115): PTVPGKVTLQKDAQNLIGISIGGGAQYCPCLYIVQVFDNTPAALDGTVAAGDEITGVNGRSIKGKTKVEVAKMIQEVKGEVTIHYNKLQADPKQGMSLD
DLG5_1, Q8TDM6, sequence (Q8TDM6 617-713): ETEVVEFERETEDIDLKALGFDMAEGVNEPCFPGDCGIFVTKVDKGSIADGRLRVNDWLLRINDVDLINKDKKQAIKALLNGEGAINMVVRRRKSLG
GRIP2_6, Q9C0E4, sequence (Q9C0E4 648-740): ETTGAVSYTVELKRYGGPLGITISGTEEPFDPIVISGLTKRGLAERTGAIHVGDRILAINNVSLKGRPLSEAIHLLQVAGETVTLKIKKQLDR
GRID2IP_2, A4D2P6, sequence (A4D2P6 272-370): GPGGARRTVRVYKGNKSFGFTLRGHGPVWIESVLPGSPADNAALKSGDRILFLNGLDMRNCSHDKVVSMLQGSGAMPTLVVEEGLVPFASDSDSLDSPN
GRIP2_4, Q9C0E4, sequence (Q9C0E4 446-548): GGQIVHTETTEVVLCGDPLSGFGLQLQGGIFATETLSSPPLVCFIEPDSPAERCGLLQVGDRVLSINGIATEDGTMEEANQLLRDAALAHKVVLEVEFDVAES
GRASP, Q7Z6J2, sequence (Q7Z6J2 96-193): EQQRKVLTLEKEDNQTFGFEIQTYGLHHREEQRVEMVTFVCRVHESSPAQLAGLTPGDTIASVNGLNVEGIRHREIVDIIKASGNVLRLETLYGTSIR
TJP1_3, Q07157, sequence (Q07157 416-512): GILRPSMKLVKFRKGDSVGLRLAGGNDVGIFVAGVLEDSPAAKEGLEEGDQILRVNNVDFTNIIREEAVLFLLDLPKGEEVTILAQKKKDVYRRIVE
IL16_4, Q14005, sequence (Q14005 1229-1329): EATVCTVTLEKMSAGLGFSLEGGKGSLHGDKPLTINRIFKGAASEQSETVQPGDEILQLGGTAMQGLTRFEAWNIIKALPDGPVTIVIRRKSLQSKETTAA
NOS1, P29475, sequence (P29475 9-101): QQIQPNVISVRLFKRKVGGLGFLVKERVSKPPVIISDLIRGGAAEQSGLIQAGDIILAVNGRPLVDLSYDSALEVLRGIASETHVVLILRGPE
FRMPD3, Q5JV73, sequence (Q5JV73 12-100): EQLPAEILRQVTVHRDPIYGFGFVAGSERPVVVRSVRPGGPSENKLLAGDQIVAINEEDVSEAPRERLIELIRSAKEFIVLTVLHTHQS
MAGI2_2, Q86UL8, sequence (Q86UL8 410-522): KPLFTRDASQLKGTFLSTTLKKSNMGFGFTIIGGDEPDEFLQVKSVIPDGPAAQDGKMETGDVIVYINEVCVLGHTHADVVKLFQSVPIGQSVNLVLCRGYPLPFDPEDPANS

With DKDPHSETAL [TMIGD1, Q6UXZ0] the pKd (DLG5_1, Q8TDM6; [1]) was “below the threshold”, the pKd (IL16_3, Q14005; [1]) was “below the threshold” and the pKd (TIAM2, Q8IVF5; [1]) was “below the threshold”. The pKd (HTRA3, P83110; [1]) was “below the threshold”, the pKd (TJP1_3, Q07157; [1]) was “below the threshold” and the pKd (GRASP, Q7Z6J2; [1]) was “below the threshold”. The pKd (PDZRN3_1, Q9UPQ7; [1]) was 4.64, the pKd (GRIP2_6, Q9C0E4; [1]) was “below the threshold” and the pKd (Inadl_9, Q8NI35; [1]) was “below the threshold”. For the same binder, the pKd (GRID2IP_2, A4D2P6; [1]) was “below the threshold”, the pKd (PICK1, Q9NRD5; [1]) was “below the threshold” and the pKd (MPP2, Q14168; [1]) was “below the threshold”. The pKd (GORASP2, Q9H8Y8; [1]) was “below the threshold”, the pKd (IL16_4, Q14005; [1]) was “below the threshold” and the pKd (FRMPD3, Q5JV73; [1]) was 3.53. The pKd (RADIL, Q96JH8; [1]) was “below the threshold”, the pKd (MAGI2_2, Q86UL8; [1]) was 3.63 and the pKd (DLG3_2, Q92796; [1]) was “below the threshold”. For the same binder, the pKd (LNX1_2, Q8TBB1; [1]) was “below the threshold”, the pKd (APBA3_1, O96018; [1]) was “below the threshold” and the pKd (NOS1, P29475; [1]) was 3.86. The pKd (GRIP2_4, Q9C0E4; [1]) was “below the threshold”, the pKd (MPDZ_12, O75970; [1]) was “below the threshold” and the pKd (DFNB31_1, Q9P202; [1]) was 3.98. The pKd (DFNB31_3, Q9P202; [1]) was “below the threshold” and the pKd (GRIP1_4, Q9Y3R0; [1]) was “below the threshold”.

In the case of SDSSGQEYSL [KCTD3, Q9Y597], the pKd (DLG5_1, Q8TDM6; [2]) is reported as “below the threshold”, the pKd (IL16_3, Q14005; [2]) is reported as “below the threshold” and the pKd (TIAM2, Q8IVF5; [2]) is reported as “below the threshold”. The pKd (HTRA3, P83110; [2]) was “below the threshold”, the pKd (TJP1_3, Q07157; [2]) was “below the threshold” and the pKd (GRASP, Q7Z6J2; [2]) was “below the threshold”. The pKd (PDZRN3_1, Q9UPQ7; [2]) was “below the threshold”, the pKd (GRIP2_6, Q9C0E4; [2]) was 3.6 and the pKd (Inadl_9, Q8NI35; [2]) was “below the threshold”. For the same binder, the pKd (GRID2IP_2, A4D2P6; [2]) was “below the threshold”, the pKd (PICK1, Q9NRD5; [2]) was “below the threshold” and the pKd (MPP2, Q14168; [2]) was “below the threshold”. The pKd (GORASP2, Q9H8Y8; [2]) was “below the threshold”, the pKd (IL16_4, Q14005; [2]) was “below the threshold” and the pKd (FRMPD3, Q5JV73; [2]) was 3.7. For the same binder, the pKd (RADIL, Q96JH8; [2]) was “below the threshold”, the pKd (MAGI2_2, Q86UL8; [2]) was “below the threshold” and the pKd (DLG3_2, Q92796; [2]) was “below the threshold”. The pKd (LNX1_2, Q8TBB1; [2]) was “below the threshold”, the pKd (APBA3_1, O96018; [2]) was “below the threshold” and the pKd (NOS1, P29475; [2]) was 3.61. The pKd (GRIP2_4, Q9C0E4; [2]) was “below the threshold”, the pKd (MPDZ_12, O75970; [2]) was “below the threshold” and the pKd (DFNB31_1, Q9P202; [2]) was “below the threshold”. The pKd (DFNB31_3, Q9P202; [2]) was “below the threshold” and the pKd (GRIP1_4, Q9Y3R0; [2]) was “below the threshold”.

For ESLLLGPSNF [SHROOM4, Q9ULL8], the pKd (DLG5_1, Q8TDM6; [2]) was “below the threshold”, the pKd (IL16_3, Q14005; [2]) was “below the threshold” and the pKd (TIAM2, Q8IVF5; [2]) was 3.49. The pKd (HTRA3, P83110; [2]) was “below the threshold”, the pKd (TJP1_3, Q07157; [2]) was “below the threshold” and the pKd (GRASP, Q7Z6J2; [2]) was 4.36. For the same binder, the pKd (PDZRN3_1, Q9UPQ7; [2]) was “below the threshold”, the pKd (GRIP2_6, Q9C0E4; [2]) was “below the threshold” and the pKd (Inadl_9, Q8NI35; [2]) was “below the threshold”. For the same binder, the pKd (GRID2IP_2, A4D2P6; [2]) was “below the threshold”, the pKd (PICK1, Q9NRD5; [2]) was “below the threshold” and the pKd (MPP2, Q14168; [2]) was “below the threshold”. The pKd (GORASP2, Q9H8Y8; [2]) was “below the threshold”, the pKd (IL16_4, Q14005; [2]) was “below the threshold” and the pKd (FRMPD3, Q5JV73; [2]) was “below the threshold”. For the same binder, the pKd (RADIL, Q96JH8; [2]) was “below the threshold”, the pKd (MAGI2_2, Q86UL8; [2]) was “below the threshold” and the pKd (DLG3_2, Q92796; [2]) was “below the threshold”. For the same binder, the pKd (LNX1_2, Q8TBB1; [2]) was “below the threshold”, the pKd (APBA3_1, O96018; [2]) was “below the threshold” and the pKd (NOS1, P29475; [2]) was “below the threshold”. The pKd (GRIP2_4, Q9C0E4; [2]) was “below the threshold”, the pKd (MPDZ_12, O75970; [2]) was “below the threshold” and the pKd (DFNB31_1, Q9P202; [2]) was “below the threshold”. The pKd (DFNB31_3, Q9P202; [2]) was “below the threshold” and the pKd (GRIP1_4, Q9Y3R0; [2]) was “below the threshold”.

In the case of QRQARSETLV [HPV59-E6, Q81964], the pKd (DLG5_1, Q8TDM6; [1]) is reported as “below the threshold”, the pKd (IL16_3, Q14005; [1]) is reported as “below the threshold” and the pKd (TIAM2, Q8IVF5; [1]) is reported as “below the threshold”. The pKd (HTRA3, P83110; [1]) was 3.69, the pKd (TJP1_3, Q07157; [1]) was “below the threshold” and the pKd (GRASP, Q7Z6J2; [1]) was “below the threshold”. For the same binder, the pKd (PDZRN3_1, Q9UPQ7; [1]) was 4.22, the pKd (GRIP2_6, Q9C0E4; [1]) was “below the threshold” and the pKd (Inadl_9, Q8NI35; [1]) was “below the threshold”. The pKd (GRID2IP_2, A4D2P6; [1]) was 3.64, the pKd (PICK1, Q9NRD5; [1]) was 3.85 and the pKd (MPP2, Q14168; [1]) was “below the threshold”. The pKd (GORASP2, Q9H8Y8; [1]) was 4.34, the pKd (IL16_4, Q14005; [1]) was “below the threshold” and the pKd (FRMPD3, Q5JV73; [1]) was “below the threshold”. It also gave a pKd (RADIL, Q96JH8; [1]) of 4.47, a pKd (MAGI2_2, Q86UL8; [1]) of 6.07 and a pKd (DLG3_2, Q92796; [1]) of 5.17. The pKd (LNX1_2, Q8TBB1; [1]) was 4.25, the pKd (APBA3_1, O96018; [1]) was “below the threshold” and the pKd (NOS1, P29475; [1]) was 4.26. The pKd (GRIP2_4, Q9C0E4; [1]) was “below the threshold”, the pKd (MPDZ_12, O75970; [1]) was “below the threshold” and the pKd (DFNB31_1, Q9P202; [1]) was “below the threshold”. For the same binder, the pKd (DFNB31_3, Q9P202; [1]) was “below the threshold” and the pKd (GRIP1_4, Q9Y3R0; [1]) was “below the threshold”.
